Among the data in the Human Domainome abundance scans (Beltran et al. 2025) are abundance fitness values, retold here.

± gives the uncertainty stated by the source.

This series can be described thus: abundance fitness (aPCA) (normalised: wild type 0, dead -1); higher = more abundant; growth selection in yeast, the domain comes from the species named. Conditions: Homo sapiens.
Consider “BAG family molecular chaperone regulator 3 I30H, O95817”, for which the abundance fitness was -0.114 ± 0.074. Next, “BAG family molecular chaperone regulator 3 I30K, O95817”: -0.087 ± 0.2; “BAG family molecular chaperone regulator 3 I30L, O95817”: 0.249 ± 0.091. “BAG family molecular chaperone regulator 3 I30N, O95817” came in with an abundance fitness of -0.166 ± 0.28. Substance “BAG family molecular chaperone regulator 3 I30P, O95817” displayed an abundance fitness of -0.661 ± 0.084. Substance “BAG family molecular chaperone regulator 3 I30R, O95817” registered an abundance fitness of -0.133 ± 0.084. Next, “BAG family molecular chaperone regulator 3 I30S, O95817”: -0.191 ± 0.077; “BAG family molecular chaperone regulator 3 I30T, O95817”: -0.32 ± 0.2.

As for “BAG family molecular chaperone regulator 3 I30V, O95817”, the abundance fitness worked out at 0.207 ± 0.092. Next, “BAG family molecular chaperone regulator 3 I30W, O95817”: 0.13 ± 0.12; “BAG family molecular chaperone regulator 3 K29A, O95817”: -0.37 ± 0.12; “BAG family molecular chaperone regulator 3 K29C, O95817”: -0.369 ± 0.24. The substance “BAG family molecular chaperone regulator 3 K29E, O95817” displayed an abundance fitness of -0.791 ± 0.42. Next, “BAG family molecular chaperone regulator 3 K29F, O95817”: -0.719 ± 0.45; “BAG family molecular chaperone regulator 3 K29G, O95817”: -0.531 ± 0.083. The same measure for “BAG family molecular chaperone regulator 3 K29H, O95817”: -0.686 ± 0.16. The same measure for “BAG family molecular chaperone regulator 3 K29I, O95817”: -0.758 ± 0.38.

“BAG family molecular chaperone regulator 3 K29L, O95817” gave an abundance fitness of -0.376 ± 0.091. Next, “BAG family molecular chaperone regulator 3 K29M, O95817”: -0.23 ± 0.21; “BAG family molecular chaperone regulator 3 K29N, O95817”: -0.75 ± 0.43. Next, “BAG family molecular chaperone regulator 3 K29P, O95817”: -0.598 ± 0.26; “BAG family molecular chaperone regulator 3 K29Q, O95817”: -0.711 ± 0.28; “BAG family molecular chaperone regulator 3 K29R, O95817”: -0.17 ± 0.066.

Turning to “BAG family molecular chaperone regulator 3 K29S, O95817”, the abundance fitness was -0.313 ± 0.11.

Turning to “BAG family molecular chaperone regulator 3 K29T, O95817”, the abundance fitness is -0.212 ± 0.16. The substance “BAG family molecular chaperone regulator 3 K29V, O95817” yielded an abundance fitness of -0.266 ± 0.11. Next, “BAG family molecular chaperone regulator 3 K29W, O95817”: -0.754 ± 0.29; “BAG family molecular chaperone regulator 3 L22A, O95817”: -0.362 ± 0.17; “BAG family molecular chaperone regulator 3 L22C, O95817”: 0.225 ± 0.16. The same measure for “BAG family molecular chaperone regulator 3 L22D, O95817”: -0.753 ± 0.42; for “BAG family molecular chaperone regulator 3 L22F, O95817”: -0.069 ± 0.18; for “BAG family molecular chaperone regulator 3 L22G, O95817”: -0.144 ± 0.13. Next, “BAG family molecular chaperone regulator 3 L22H, O95817”: -0.796 ± 0.37; “BAG family molecular chaperone regulator 3 L22I, O95817”: -0.271 ± 0.15; “BAG family molecular chaperone regulator 3 L22M, O95817”: 0.023 ± 0.17. The substance “BAG family molecular chaperone regulator 3 L22N, O95817” showed an abundance fitness of -0.67 ± 0.34.

The substance “BAG family molecular chaperone regulator 3 L22P, O95817” yielded an abundance fitness of -0.477 ± 0.23. The same measure for “BAG family molecular chaperone regulator 3 L22Q, O95817”: -0.226 ± 0.095; for “BAG family molecular chaperone regulator 3 L22S, O95817”: -0.574 ± 0.11; for “BAG family molecular chaperone regulator 3 L22T, O95817”: 0.047 ± 0.17. “BAG family molecular chaperone regulator 3 L22V, O95817” came in with an abundance fitness of 0.078 ± 0.068. The same measure for “BAG family molecular chaperone regulator 3 L22W, O95817”: -0.464 ± 0.083; for “BAG family molecular chaperone regulator 3 N16A, O95817”: 0.423 ± 0.079; for “BAG family molecular chaperone regulator 3 N16C, O95817”: 0.113 ± 0.14. Take “BAG family molecular chaperone regulator 3 N16D, O95817”: the abundance fitness came to 0.008 ± 0.07. Take “BAG family molecular chaperone regulator 3 N16E, O95817”: the abundance fitness is 0.658 ± 0.11. Next, “BAG family molecular chaperone regulator 3 N16F, O95817”: -0.219 ± 0.24. The same measure for “BAG family molecular chaperone regulator 3 N16H, O95817”: 0.094 ± 0.13; for “BAG family molecular chaperone regulator 3 N16I, O95817”: 0.113 ± 0.19. Next, “BAG family molecular chaperone regulator 3 N16K, O95817”: 1.04 ± 0.12; “BAG family molecular chaperone regulator 3 N16L, O95817”: 0.33 ± 0.1. Substance “BAG family molecular chaperone regulator 3 N16M, O95817” returned an abundance fitness of 0.276 ± 0.065. The same measure for “BAG family molecular chaperone regulator 3 N16P, O95817”: 0.153 ± 0.14. “BAG family molecular chaperone regulator 3 N16Q, O95817” registered an abundance fitness of 0.465 ± 0.17. The same measure for “BAG family molecular chaperone regulator 3 N16R, O95817”: 0.231 ± 0.065; for “BAG family molecular chaperone regulator 3 N16T, O95817”: 0.666 ± 0.11. Next, “BAG family molecular chaperone regulator 3 N16V, O95817”: 0.368 ± 0.1; “BAG family molecular chaperone regulator 3 N16Y, O95817”: 0.117 ± 0.1; “BAG family molecular chaperone regulator 3 N43A, O95817”: -0.331 ± 0.087.
